Like-named read-outs stand apart in the source and are kept apart here. One block for each molecule: values may come before it.
Assays:
physchem = assay type: physicochemical; conditions: water, pKa
Method: The crude product contained a mixture of folate-deferoxamine conjugates, wherein the folate is linked to DF via its α-carboxyl or γ-carboxyl group as well as unreacted folic acid. The two isomers of DF-folate were isolated and purified on a weak anion-exchange column. Briefly, the product mixture was loaded onto a 1.5 cm×15 cm […] column pre-equilibrated in 10 mM NH4 CO3 buffer (pH 7.9). The column was washed with 50 mL 10 mM NH4 HCO3 and then eluted with a 500 mL gradient of 80-180 mM NH4 HCO3 followed by 150 mL 500 mM NH4 HCO3. Three folate-containing peaks were obtained as detected by UV absorbance at 363 nm. Each peak was collected, lyophilized, and redissolved in deionized water. The purity of each component was confirmed by reverse-phase high pressure liquid chromatography (HPLC) with a 10 mm×250 mm Licrosorb RP-18 column (Altech, Deerfield, Ill.), and evaluation of the conjugates' molecular weights was determined by fast-atom bombardment mass spectroscopy (FAB-MS). The characteristic pKa values of the two DF-folate isomers were obtained by titration on a pH/ion analyzer (Corning, Corning, N.Y.). […] Since the two isoforms of DF-folate conjugate retain either a free γ-carboxyl or free α-carboxyl, they can be distinguished from each other and from unreacted folic acid by their characteristic pKa values, which were determined by titration.

[1] = target: T1, KB cell folate-binding protein (Homo sapiens, UniProt P15328); test: Competitive binding assay using [^3 H]folic acid on KB cells; conditions: equimolar amount (100 pmoles each), 30 min, 4° C.
T1 construct: endogenous in cells; host or cells: KB cells
T1 sequence (P15328 25-257): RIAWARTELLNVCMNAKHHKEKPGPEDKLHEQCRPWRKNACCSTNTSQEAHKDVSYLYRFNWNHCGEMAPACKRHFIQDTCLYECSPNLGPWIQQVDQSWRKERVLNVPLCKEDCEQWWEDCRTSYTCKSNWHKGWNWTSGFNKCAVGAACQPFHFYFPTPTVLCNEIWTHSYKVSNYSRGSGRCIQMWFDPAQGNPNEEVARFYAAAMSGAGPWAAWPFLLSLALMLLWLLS
Method: (§1) Cell Culture. KB cells, a human nasopharyngeal epidermal carcinoma cell line that greatly overexpresses the folate binding protein, were cultured continuously as a monolayer at 37° C. in a humidified atmosphere containing 5% CO2 in folate-deficient modified Eagle's medium (FDMEM) (a folate-free modified Eagle's medium supplemented with 10% (v/v) heat-inactivated fetal calf serum as the only source of folate) containing penicillin (50 units/mL), streptomycin (50 μg/mL), and 2 mM L-glutamine. The final folate concentration in the complete FDMEM is the physiological range (~2 nM). 48 h prior to each experiment, the cells were transferred to 35 mm culture dishes at 5×10^5 cells per dish and grown to ~80% confluent.
The affinity of the DF-folate(α) and DF-folate(γ) conjugates for the KB cell folate-binding protein was evaluated in a competitive binding assay using [^3 H]folic acid as the receptor ligand. Briefly, 100 pmoles of [^3 H]folic acid and 100 pmoles of either DF-folate(α) or DF-folate(γ) dissolved in phosphate-buffered saline (PBS) were added to KB cells grown ~80% confluence in 1 mL FDMEM in 35 mm culture dishes. Following a 30 min incubation at 4° C., the cells were washed 3 times with cold PBS. Cell-associated [^3 H] folic acid was then determined by liquid scintillation counting, and the cellular protein content was evaluated by the BCA protein assay.

[2] = tested on: Subcutaneous KB Cell Tumors
human KB cells tumors = assay type: in vivo, athymic mice; conditions: 29.6 mg tumor; ~45 hours post-injection
Method: To test the tumor-cell-selective uptake of metal-labeled radiopharmaceuticals in vivo, ~180 μCi of ^67 Ga-deferoxamine-folate conjugate (See FIG. 3) was administered to two tumor-bearing athymic mice. Tumors were generated in athymic mice by subcutaneous injecting human KB cells into the dorsal-lateral region of the mice according to procedures familiar to those of ordinary skill in the art. After establishment of tumors in the mice, ~180 μCi of ^67 Ga-deferoxamine-folate conjugate was administered intravenously. Approximately 45 hours post-injection, gamma images were obtained and the tissue distribution of ^67 Ga quantitated.
To test the viability of the FBP-receptor as a pathway for achieving tumor-cell-selective uptake of metal-labeled radiopharmaceuticals in vivo, ~180 μCi of ^67 Ga-deferoxamine-folate conjugate was administered intravenously to two tumor-bearing athymic mice via the femoral vein nine days after subcutaneous injection of 4×10^6 human KB cells. At approximately 45 hours post-injection, gamma images were obtained, the animals were sacrificed and dissected, and the tissue distribution of tracer was quantified by gamma counting (after storage of the weighted tissue samples for decay to a suitable ^67 Ga count rate). […] The tumor to blood ratio was 1500 and 1185 and the tumor to muscle ratio was 170 and 288 for each respective mouse.

KB cells = test: Uptake of ^67 Ga-DF-folate complex by cultured KB cells; assay type: cell-based, human; conditions: for saturating level of cellular uptake, of the total radioactivity added: concentration dependence
Method: as §1
Because folate and its conjugates bind to cell surface receptors at 4° C., but are capable of endocytosis only at higher temperatures, it is possible to separately evaluate the kinetics of binding the internalization of folate by measuring the rates of folate conjugate uptake at the two temperatures. […] By the end of the 30 min incubation, binding approached to saturation with ~18% of the initial radioactivity found associated with a cell surface.
Incubation at 37° C., a temperature which permits both binding and endocytosis, yielded similar kinetic results, however, maximal uptake reached 32% of the total conjugate added. Presumably, the difference in magnitude of the two cellular uptake curves reflects the ability of the folate receptor to internalize the conjugate and then recycle to the cell surface in its unoccupied form. […] This latter result is consistent with the inability of the α-conjugate to compete with free folate for the cell surface receptor.
To verify the involvement of a cell surface folate receptor in mediating the uptake of ^67 Ga-DF-folate(γ), binding and internalization of the complex were evaluated as a function of the complex's concentration. Cellular uptake of ^67 Ga-DF-folate(γ) was concentration dependent at both 4° C. and 37° C., saturating at levels of 20% and 35% of the total radioactivity added, respectively.

[3] = tested on: KB cells (a human nasopharyngeal cell line); test: Uptake of ^125 I-labeled folate-labeled protein by KB cells; assay type: cell-based; conditions: procedure of Example 17
KB Tumors [4] = conditions: mouse, in vivo, iv
KB Tumors [5] = test: Biodistribution of ^125 I-RNase-Folate conjugate and ^125 I-RNase control following I.V. administration to athymic mice with KB tumors; conditions: folate-free diet

Molecule: CC(=O)N(O)CCCCCNC(=O)CCC(=O)N(O)CCCCCNC(=O)CCC(=O)N(O)CCCCCNC(=O)[C@H](CCC(=O)O)NC(=O)c1ccc(NCc2cnc3nc(N)[nH]c(=O)c3n2)cc1 [DF-folate(α)]
pKa (physchem): 2.5
decrease in bound [^3 H]folic acid [1]: no ability to compete

B1: SBTI: soybean trypsin inhibitor, folate-ligated as in Example 17 (conjugate, UniProt P01070 25-205, looked up)
Trypsin inhibitor A: DFVLDNEGNPLENGGTYYILSDITAFGGIRAAPTGNERCPLTVVQSRNELDKGIGTIISSPYRIRFIAEGHPLSLKFDSFAVIMLCVGIPTEWSVVEDLPEGPAVKIGENKDAMDGWFRLERVSDDEFNNYKLVFCPQQAEDDKCGDIGISIDHDDGTRRLVVSKNKPLVVQFQKLDKESL
modifications: folate conjugated
uptake of SBTI by KB cells [3]: Folate ligation was again demonstrated to be essential for uptake

B2: ^125 I-RNase-Folate: ^125 I labeled ribonuclease-folate conjugate (conjugate, UniProt P61823 27-150, looked up)
Ribonuclease pancreatic: KETAAAKFERQHMDSSTSAASSSNYCNQMMKSRNLTKDRCKPVNTFVHESLADVQAVCSQKNVACKNGQTNCYQSYSTMSITDCRETGSSKYPNCAYKTTQANKHIIVACEGNPYVPVHFDASV
modifications: 125I label; folate conjugated
Percentage of Injected Dose per Gram: Blood (KB Tumors [4]; 1 h): 5.34 ± 1.07 % of injected dose per gram
Percentage of Injected Dose per Gram: Bone (KB Tumors [4]; 1 h): 3.20 ± 0.23 % of injected dose per gram
Percentage of Injected Dose per Gram: Heart (KB Tumors [4]; 1 h): 2.01 ± 0.22 % of injected dose per gram
Percentage of Injected Dose per Gram: Intestines (KB Tumors [4]; 1 h): 2.03 ± 0.28 % of injected dose per gram
Percentage of Injected Dose per Gram: Kidney (KB Tumors [4]; 1 h): 16.08 ± 2.76 % of injected dose per gram
Percentage of Injected Dose per Gram: Liver (KB Tumors [4]; 1 h): 9.78 ± 1.11 % of injected dose per gram
Percentage of Injected Dose per Gram: Lungs (KB Tumors [4]; 1 h): 4.19 ± 0.61 % of injected dose per gram
Percentage of Injected Dose per Gram: Muscle (KB Tumors [4]; 1 h): 1.73 ± 0.32 % of injected dose per gram
Percentage of Injected Dose per Gram: Spleen (KB Tumors [4]; 1 h): 9.94 ± 1.37 % of injected dose per gram
Percentage of Injected Dose per Gram: Stomach (KB Tumors [4]; 1 h): 21.07 ± 2.57 % of injected dose per gram
Percentage of Injected Dose per Gram: Testes (KB Tumors [4]; 1 h): 1.50 ± 0.18 % of injected dose per gram
Percentage of Injected Dose per Gram: Tumor (KB Tumors [4]; 1 h): 5.35 ± 0.54 % of injected dose per gram
Tumor/Blood (KB Tumors [4]; 60 min): 1.02 ± 0.16
Tumor/Muscle (KB Tumors [4]; 60 min): 3.14 ± 0.43
Percentage of Injected Dose per Gram: Blood (KB Tumors [4]; 4 h): 2.30 ± 0.62 % of injected dose per gram
Percentage of Injected Dose per Gram: Bone (KB Tumors [4]; 4 h): 1.17 ± 0.28 % of injected dose per gram
Percentage of Injected Dose per Gram: Heart (KB Tumors [4]; 4 h): 0.93 ± 0.39 % of injected dose per gram
Percentage of Injected Dose per Gram: Intestines (KB Tumors [4]; 4 h): 0.95 ± 0.16 % of injected dose per gram
Percentage of Injected Dose per Gram: Kidney (KB Tumors [4]; 4 h): 5.11 ± 1.27 % of injected dose per gram
Percentage of Injected Dose per Gram: Liver (KB Tumors [4]; 4 h): 3.29 ± 0.77 % of injected dose per gram
Percentage of Injected Dose per Gram: Lungs (KB Tumors [4]; 4 h): 1.97 ± 0.77 % of injected dose per gram
Percentage of Injected Dose per Gram: Muscle (KB Tumors [4]; 4 h): 0.98 ± 0.54 % of injected dose per gram
Percentage of Injected Dose per Gram: Spleen (KB Tumors [4]; 4 h): 2.78 ± 0.73 % of injected dose per gram
Percentage of Injected Dose per Gram: Stomach (KB Tumors [4]; 4 h): 26.45 ± 8.05 % of injected dose per gram
Percentage of Injected Dose per Gram: Testes (KB Tumors [4]; 4 h): 1.0 ± 0.15 % of injected dose per gram
Tumor/Blood (KB Tumors [4]; 1440 min): 11.88 ± 3.71
Tumor/Muscle (KB Tumors [4]; 1440 min): 32.6 ± 6.7
Percentage of Injected Dose per Gram: Blood (KB Tumors [4]; 24 h): 0.04 ± 0.01 % of injected dose per gram
Percentage of Injected Dose per Gram: Bone (KB Tumors [4]; 24 h): 0.09 ± 0.03 % of injected dose per gram
Percentage of Injected Dose per Gram: Heart (KB Tumors [4]; 24 h): 0.024 ± 0.006 % of injected dose per gram
Percentage of Injected Dose per Gram: Intestines (KB Tumors [4]; 24 h): 0.05 ± 0.006 % of injected dose per gram
Percentage of Injected Dose per Gram: Kidney (KB Tumors [4]; 24 h): 0.72 ± 0.07 % of injected dose per gram
Percentage of Injected Dose per Gram: Liver (KB Tumors [4]; 24 h): 0.38 ± 0.03 % of injected dose per gram
Percentage of Injected Dose per Gram: Lungs (KB Tumors [4]; 24 h): 0.04 ± 0.01 % of injected dose per gram
Percentage of Injected Dose per Gram: Muscle (KB Tumors [4]; 24 h): 0.013 ± 0.002 % of injected dose per gram
Percentage of Injected Dose per Gram: Spleen (KB Tumors [4]; 24 h): 0.23 ± 0.04 % of injected dose per gram
Percentage of Injected Dose per Gram: Stomach (KB Tumors [4]; 24 h): 0.26 ± 0.14 % of injected dose per gram
Percentage of Injected Dose per Gram: Testes (KB Tumors [4]; 24 h): 0.021 ± 0.004 % of injected dose per gram
Percentage of Injected Dose per Gram: Tumor (KB Tumors [4]; 24 h): 0.41 ± 0.02 % of injected dose per gram
Percentage of Injected Dose per Gram: Brain (KB Tumors [5]; 1 hour after i.v.): 0.29 ± 0.04 % of injected dose per gram
Percentage of Injected Dose per Gram: Brain (KB Tumors [5]; 4 hours after i.v.): 0.19 ± 0.14 % of injected dose per gram
Percentage of Injected Dose per Gram: Brain (KB Tumors [5]; 24 hours after i.v.): 0.007 ± 0.001 % of injected dose per gram

Continued, in another order:

pKa (physchem): 4.5
decrease in bound [^3 H]folic acid [1]: 50%
Molecule: CC(=O)N(O)CCCCCNC(=O)CCC(=O)N(O)CCCCCNC(=O)CCC(=O)N(O)CCCCCNC(=O)CC[C@H](NC(=O)c1ccc(NCc2cnc3nc(N)[nH]c(=O)c3n2)cc1)C(=O)O [DF-folate(γ)]

Tumor-to-Non-target Ratio: Tumor/blood ([2]; mouse, in vivo, iv, 270 min): 48 ± 5
Tumor-to-Non-target Ratio: Tumor/kidney ([2]; mouse, in vivo, iv, 270 min): 1.4 ± 0.5
Tumor-to-Non-target Ratio: Tumor/liver ([2]; mouse, in vivo, iv, 270 min): 5.1 ± 0.5
Tumor-to-Non-target Ratio: Tumor/muscle ([2]; mouse, in vivo, iv, 270 min): 82 ± 16
Percentage of Injected Dose per Gram of Tissue: Kidney ([2]; mouse, in vivo, iv, 4.5 h): 1.79 ± 0.82 % of injected dose per gram
Percentage of Injected Dose per Gram of Tissue: Liver ([2]; mouse, in vivo, iv, 4.5 h): 0.43 ± 0.03 % of injected dose per gram
Percentage of Injected Dose per Gram of Tissue: Tumor ([2]; mouse, in vivo, iv, 4.5 h): 2.22 ± 0.36 % of injected dose per gram
Molecule: CC(=O)N([O-])CCCCCNC(=O)CCC(=O)N([O-])CCCCCNC(=O)CCC(=O)N([O-])CCCCCNC(=O)CCC(NC(=O)c1ccc(NCc2cnc3nc(N)[nH]c(=O)c3n2)cc1)C(=O)O.[67Ga+3] (stereo not shown) [^67 Ga-DF-Folate]
imaging of tumors in vivo with a gamma camera ([2]; 8 mm tumors): 8 mm tumors were easily imaged in vivo
Percentage of Injected Dose per Gram of Tissue: Blood ([2]; mouse, in vivo, iv, 4.5 h): 0.046 ± 0.009 % of injected dose per gram
Percentage of Injected Dose per Gram of Tissue: Heart ([2]; mouse, in vivo, iv, 4.5 h): 0.025 ± 0.005 % of injected dose per gram
Percentage of Injected Dose per Gram of Tissue: Lungs ([2]; mouse, in vivo, iv, 4.5 h): 0.052 ± 0.010 % of injected dose per gram
Percentage of Injected Dose per Gram of Tissue: Muscle ([2]; mouse, in vivo, iv, 4.5 h): 0.028 ± 0.005 % of injected dose per gram
detection of tumor by gamma scintigraphy (human KB cells tumors): readily detected by gamma scintigraphy
time to half maximal binding (KB cells; 4° C.): ~ 3 min
saturating level of cellular uptake, of the total radioactivity added (KB cells; 4° C.): 20%
initial radioactivity associated with cell surface (KB cells; 4° C., end of 30 min incubation): ~ 18%
maximal uptake, of the total conjugate added (KB cells; 37° C.): 32%
saturating level of cellular uptake, of the total radioactivity added (KB cells; 37° C.): 35%
initial cellular uptake retained (KB cells; 100-fold molar excess of free folate): 0.5%
decrease in uptake (KB cells; equimolar unlabeled folic acid): 50%

From patent US5688488A, “Composition and method for tumor imaging” (priority 1995, dated 1997)
